Results on one compound are retold here after PMC7391724 (Scientific Reports, 2020).

A short description of data set [1]: Plasma protein binding (ultrafiltration), rat. The following applies: 37 °C. It counts as in vitro ADME. The method, then:
(§1) Plasma ultrafiltration was used for determination of free and protein bound fractions of EC2629 and EC2491. Samples were extracted and analyzed using fit-for-purpose bioanalytical methods. Briefly, 500 nM EC2629 or EC2491 was spiked into plasma maintained at 37 °C prior to plasma ultrafiltration. Plasma spiked with 500 nM EC2629 or EC2491 was allowed to equilibrate at 37 °C for 30 min prior to processing. Next, 50 μL of plasma was transferred to a clean 1.2 mL plate stored at 2–8 °C for further processing. The remaining plasma sample volumes were transferred to 30 Kd MWCO PES filter to generate plasma ultrafiltrate by centrifugation at 10,000×g for 20 min. After which, 50 μL of each plasma ultrafiltrate was transferred to separate wells in a clean 1.2 mL plate. To all spiked plasma samples, 50 μL of blank plasma ultrafiltrate was added. 50 μL of blank plasma was added to all experimental ultrafiltrate samples. These blank matrix additions normalized the matrix effects for protein binding determination. Samples were then extracted using protein precipitation with a 3:1 ratio of acetonitrile after addition of internal standard. The supernatant transferred to a new plate, evaporated, and reconstituted prior to LC–MS/MS analysis.

The nature of data set [2]: Whole blood stability, mouse. It counts as in vitro ADME. To be noted: 500 nM, 37 °C, two hours, mouse blood. How it is done:
(§2) Whole blood and plasma stability were determined for EC2629 and EC2491 at a concentration of 500 nM. Samples were extracted and analyzed using fit-for-purpose bioanalytical methods. EC2629 or EC2491 was spiked into 1 mL whole blood or plasma maintained at 37 °C for 30 min prior to use . Fifty µl aliquots were then removed at defined timepoints and stored in a 1.2 mL extraction plate prior to analysis. Samples were then extracted using protein precipitation with a 3:1 ratio of acetonitrile after addition of internal standard. The supernatant was then transferred to a new plate, evaporated, and reconstituted prior to LC–MS/MS analysis.

Data set [3] can be described thus: Whole blood stability, rat. It is filed as in vitro ADME. To be noted: 37 °C, after two hours, read-out: percent remaining in whole blood. The method, then: as §2
Another data set is described as follows: Plasma stability, human. It is filed as in vitro ADME. To be noted: 500 nM, 37 °C, 2 h. The method, then:
as §2

Data set [4] in a line: Plasma protein binding (ultrafiltration), human. It is filed as in vitro ADME. To be noted: 37 °C. The method, then: as §1
Data set [5] in a line: Plasma protein binding (ultrafiltration), mouse. It counts as in vitro ADME. The following applies: 37 °C. The method, then: as §1
The nature of the next data set: Plasma stability, mouse. It is filed as in vitro ADME. To be noted: 500 nM, 37 °C, 2 h. How it is done: as §2
Data set [6] is described as follows: Plasma protein binding (ultrafiltration), dog. It is filed as in vitro ADME. The following applies: 37 °C. The method, then: as §1
The nature of data set [7]: Plasma protein binding (ultrafiltration), across all species. It counts as in vitro ADME. To be noted: rat, mouse, dog, human, 37 °C, read-out: plasma protein binding, range across all species. The method, then: as §1
The next data set concerns KB tumor xenografts. Kind of data set: KB tumor xenograft in nu/nu mice. The following applies: EC2629 0.3 µmol/kg iv SIW x 2 weeks. It is filed as in vivo. How it is done:
Four- to eight-week-old female nu/nu mice and rats (Harlan Sprague Dawley, Inc.), were maintained on a standard 12-h light–dark cycle and fed ad libitum with a low-folate chow (Harlan Teklad diet #TD.01013, Madison, WI) for the duration of dosing and 1 week post dosing schedule. Mice and rats were then switched to Teklad Global 18% Rodent diet (Harlan Teklad diet #2018S) during the monitoring phase of the study. Parental KB, KB-CR2000 or KB-PR10 cells (1 × 10^6/100 µL per nu/nu mouse and 5 × 10^6/200 µL per nu/nu rat) were injected into the subcutis of the dorsal medial area. Mice were divided into groups of 5 and rats in groups of 3–4, and freshly prepared test articles were injected through the lateral tail vein under sterile conditions in a volume of 200 μL/20 g of PBS. In mice, intravenous treatments typically initiated on day 7 PTI when KB tumors were approximately 111–168 mm^3 in volume, on day 5 PTI when the KB-PR tumors were about 205–243 mm^3, and on day 6 PTI when the KB-CR tumors were around 98 to 168 mm^3. Treatments in rats were started on day 10 PTI when KB tumors were approximately 412–704 mm^3 in volume.
Animals in the control groups received no treatment. Growth of each subcutaneous tumor was followed by measuring the tumor 3 times per week during treatment and twice per week thereafter, until a maximum volume of 1,500 mm^3 for mice and 15,000 mm^3 for rats were reached. Tumors were measured in two perpendicular directions using Vernier calipers, and their volumes were calculated as V = 0.5 × L × W^2, where L = measurement of longest axis in mm and W = measurement of axis perpendicular to L in mm[16]. As a general measure of gross toxicity, changes in body weights were determined on the same schedule as tumor volume measurements. Survival of animals was monitored daily. Animals that were moribund (or unable to reach food or water) were euthanized by CO2 asphyxiation. Individual tumor response endpoints were reported in terms of tumor volume change. A partial response (PR) was defined as volume regression > 50% but with measurable tumor (> 2 mm^3) remaining at all times. Complete response (CR) was defined as a disappearance of measurable tumor mass (< 2 mm^3) at some point within 90 days after tumor implantation. Cures were defined as CRs without tumor regrowth within the 90-day study time frame.

Another data set can be described thus: Plasma stability, rat. It is filed as in vitro ADME. To be noted: 500 nM, 37 °C, 2 h. The method, then: as §2
The next data set is described as follows: Plasma stability, dog. It counts as in vitro ADME. The following applies: 500 nM, 37 °C, 2 h. The method, then: as §2

For the compound `C=C1C[C@H]2C=Nc3cc(OCCCCCOc4cc(N)c(C(=O)N5CC(=C)C[C@H]5C5OCCN5C(=O)OCC(C)(C)SSCCC(=O)NCCNC(=O)CCOCCOCCOCCOCCNC(=O)CCN5C(=O)CC(SC[C@H](NC(=O)[C@H](CC(=O)O)NC(=O)[C@H](CC(=O)O)NC(=O)[C@H](CCCNC(=N)N)NC(=O)[C@H](CC(=O)O)NC(=O)CC[C@H](NC(=O)c6ccc(NCc7cnc8nc(N)[nH]c(=O)c8n7)cc6)C(=O)O)C(=O)O)C5=O)cc4OC)c(OC)cc3C(=O)N2C1` (stereo partly drawn) [EC2629], the fraction unbound at 30 min, 500 nM in [1] was 0.026; in [4], 0.128; in data set [5], 0.051; in data set [6], 0.055; in [7], 0.026 to 0.128. For the same compound, the whole blood stability result in [2] is listed as “no observed degradation”. The amount remaining at 2 h, 500 nM in data set [3] came to 75.1%. For the same compound, the plasma stability result was “stable” in the data set “Plasma stability, human”; “stable” in “Plasma stability, mouse”; “stable” in “Plasma stability, rat”; “stable” in “Plasma stability, dog”. In addition, in the data set on KB tumor xenografts, the body weight change entry was “did not lose any significant weight”.

By fraction remaining is commonly meant what is left of the initial amount, in per cent.
